{"source": "paper PMC12787490", "about": "“PSA-Responsive Aptamer-Based Switchable Aggregates of Ultrasmall Gold Nanoparticles”", "binders": {"B1": {"name": "AS2-biotin (structured_DNA)", "DNA": "GGGCGGGGCGGACGAGACAGTAAGGGCTGTGGGTGTGGTG", "modifications": "3' biotin"}, "B2": {"name": "aPSA-biotin (ssDNA)", "DNA": "ATTAAAGCTCGCCATCAAATAGC", "modifications": "biotin"}, "B3": {"name": "AS2-tail-biotin:RevAS2 (mixed)", "DNA": "GGGCGGGGCGGACGAGACAGTAAGGGCTGTGGGTGTGGTGTTTTTTT", "?": "AAAAAAACACCACAC", "modifications": "3' biotin on AS2-tail"}, "B4": {"name": "AS2-tail-thio:RevAS2-thio (AS2-US-AuNP-Aggregate) (mixed)", "DNA": "GGGCGGGGCGGACGAGACAGTAAGGGCTGTGGGTGTGGTGTTTTTTT", "?": "AAAAAAACACCACAC", "modifications": "3' thiol on AS2-tail, 5' thiol on RevAS2; conjugated to gold nanoparticles"}}, "key": {"[1]": {"molecular_target": "T1, prostate-specific antigen (PSA) (human, UniProt P07288 25-261)", "T1 sequence (P07288 25-261)": "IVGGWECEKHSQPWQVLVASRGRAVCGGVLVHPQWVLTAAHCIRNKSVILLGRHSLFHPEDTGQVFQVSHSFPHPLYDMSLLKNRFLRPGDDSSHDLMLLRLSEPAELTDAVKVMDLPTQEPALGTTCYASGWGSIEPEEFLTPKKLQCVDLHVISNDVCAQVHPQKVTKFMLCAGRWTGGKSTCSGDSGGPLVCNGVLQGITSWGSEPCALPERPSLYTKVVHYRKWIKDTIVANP", "test": "ELONA (direct); significant signal from 250 nM, 5 mM MgCl2; ELONA: PSA 250 ng/well adsorbed; aptamers 3.9-500 nM in PBS + 5 mM MgCl2, 1 h at 37 C; block 3% BSA + 100 nM ssDNA mix; wash PBS 0.05% Tween-20", "conditions": "protein: commercial; label: biotin; stem-loops nt 4-14 and 17-30 (predicted)"}, "[2]": {"molecular_target": "T1, prostate-specific antigen (PSA)", "test": "ELONA (direct); 3.9-500 nM aptamer, 5 mM MgCl2; ELONA: PSA 250 ng/well adsorbed; aptamers 3.9-500 nM in PBS + 5 mM MgCl2, 1 h at 37 C; block 3% BSA + 100 nM ssDNA mix; wash PBS 0.05% Tween-20", "conditions": "protein: commercial; label: biotin"}, "[3]": {"molecular_target": "T1, prostate-specific antigen (PSA)", "test": "ELONA (direct); significant signal from 250 nM; affinity comparable to AS2; 5 mM MgCl2; ELONA: PSA 250 ng/well adsorbed; aptamers 3.9-500 nM in PBS + 5 mM MgCl2, 1 h at 37 C; block 3% BSA + 100 nM ssDNA mix; wash PBS 0.05% Tween-20", "conditions": "protein: commercial; label: biotin; 15 bp duplex at 3' end of AS2-tail, 5' overhang 32 nt of AS2-tail"}, "[4]": {"molecular_target": "T1, prostate-specific antigen (PSA)", "test": "DLS and plasmon shift (aggregate disassembly); response down to 10 fM PSA in buffer, 1 pM in filtered plasma; ELONA: PSA 250 ng/well adsorbed; aptamers 3.9-500 nM in PBS + 5 mM MgCl2, 1 h at 37 C; block 3% BSA + 100 nM ssDNA mix; wash PBS 0.05% Tween-20", "conditions": "protein: commercial; label: US-AuNP; 15 bp duplex at 3' end of AS2-tail, 5' overhang 32 nt; about 8 ssDNA per particle"}}}
{"binder": "B1", "values": [{"measurement": "binding result", "setting": "[1]", "value": "binds"}]}
{"binder": "B2", "values": [{"measurement": "binding result", "setting": "[2]", "value": "no binding"}]}
{"binder": "B3", "values": [{"measurement": "binding result", "setting": "[3]", "value": "binds"}]}
{"binder": "B4", "values": [{"measurement": "binding result", "setting": "[4]", "value": "binds"}]}
